Assay [1] addresses T1, YenB/YenC2-N complex (hollow shell) (Yersinia entomophaga, UniProt B6A880 1-1487; B6A882 1-690).
T1 construct: Heterodimer of YenB and YenC2-N. It is used here as the partner that encapsulates YenC2-C or GFP; also called TcB:TcC shell; BC shell
In words: SAXS and crystal structure; encapsulation in the shell.

Assay [2] has as its target T2, Yersinia entomophaga YenB (TcB component of the Yen-Tc toxin complex) (Yersinia entomophaga, UniProt B6A880 1-1487).
T2 sequence: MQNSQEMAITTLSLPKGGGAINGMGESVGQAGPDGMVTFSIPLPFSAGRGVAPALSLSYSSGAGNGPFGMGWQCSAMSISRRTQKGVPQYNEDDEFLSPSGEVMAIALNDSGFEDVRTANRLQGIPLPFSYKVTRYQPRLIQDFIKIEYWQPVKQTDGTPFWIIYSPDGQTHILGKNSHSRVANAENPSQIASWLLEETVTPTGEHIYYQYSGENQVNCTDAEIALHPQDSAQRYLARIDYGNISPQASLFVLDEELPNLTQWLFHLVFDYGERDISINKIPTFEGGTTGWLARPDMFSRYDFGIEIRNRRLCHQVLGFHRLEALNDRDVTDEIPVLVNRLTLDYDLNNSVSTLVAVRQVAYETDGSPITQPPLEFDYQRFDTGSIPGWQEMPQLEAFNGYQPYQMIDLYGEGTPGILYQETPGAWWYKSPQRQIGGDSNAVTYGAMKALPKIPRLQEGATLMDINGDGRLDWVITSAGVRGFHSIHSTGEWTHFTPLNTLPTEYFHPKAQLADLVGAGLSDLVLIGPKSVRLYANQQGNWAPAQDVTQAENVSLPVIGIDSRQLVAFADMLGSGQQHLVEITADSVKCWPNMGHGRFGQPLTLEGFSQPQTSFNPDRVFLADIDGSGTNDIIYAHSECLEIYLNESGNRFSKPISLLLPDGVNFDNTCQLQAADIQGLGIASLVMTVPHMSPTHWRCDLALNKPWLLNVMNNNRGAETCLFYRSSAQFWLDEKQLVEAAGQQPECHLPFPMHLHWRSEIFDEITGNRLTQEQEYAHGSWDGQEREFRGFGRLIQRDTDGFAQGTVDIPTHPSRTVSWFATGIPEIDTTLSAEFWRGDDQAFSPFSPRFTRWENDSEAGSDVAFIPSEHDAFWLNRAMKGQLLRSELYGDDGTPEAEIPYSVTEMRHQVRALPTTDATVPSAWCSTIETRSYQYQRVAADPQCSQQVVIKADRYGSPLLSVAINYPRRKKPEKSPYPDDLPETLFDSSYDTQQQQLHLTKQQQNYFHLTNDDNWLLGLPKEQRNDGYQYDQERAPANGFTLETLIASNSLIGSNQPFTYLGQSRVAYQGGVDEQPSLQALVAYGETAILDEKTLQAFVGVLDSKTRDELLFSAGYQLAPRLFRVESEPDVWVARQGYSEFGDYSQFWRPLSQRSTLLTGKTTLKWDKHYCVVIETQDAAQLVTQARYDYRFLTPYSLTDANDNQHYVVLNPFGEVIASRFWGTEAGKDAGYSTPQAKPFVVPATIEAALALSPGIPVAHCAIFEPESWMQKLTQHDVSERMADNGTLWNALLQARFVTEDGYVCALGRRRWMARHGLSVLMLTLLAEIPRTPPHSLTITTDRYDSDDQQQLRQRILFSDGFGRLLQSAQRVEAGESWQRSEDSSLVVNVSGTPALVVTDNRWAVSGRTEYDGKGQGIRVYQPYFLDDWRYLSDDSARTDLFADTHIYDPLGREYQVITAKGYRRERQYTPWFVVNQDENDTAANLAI
In words: co-expression, co-purification by Ni-affinity and SEC.

For assay [3], the target named is T2, Yersinia entomophaga YenB (TcB …). In words: co-expression in E. coli, size-exclusion chromatography.
Assay [4] has the same target. Put plainly: X-ray crystal structure (figure legend).
The target is the same in assay [5]. In words: purification after precipitation of the C-terminal domain at pH 4.5-5.0.

B1: C-terminal region of YenC2 (YenC2-C) (other)
chain: APLDWLDLDTTNASRDIVKAIYQLNQIDGPHRGVRDTYQRMTESTGMILQETLNNEAVLKGIKQKDKEKKSRGMKFTNSKLKTYAAHAGVLNTLQPDPVYKDGFLNLPGSLGNKNTFPGVELIEDKVKPSLSQYHPDKLGKSQRWKPESSLGYYRVADTEAFITGIRSQYKSSGTDLHAVVEGRIRDHLLANNNVLPKMAGIAGLHAEVQALNYIISNPDIEGGNAERLNGSYIFTQRLVGDVNQDFPACYNCSGIISGLENVMTGRVNNDVRLKRRKSF
notes: also called YenC-C; TcC-C
As to B1, in assay [1], the binding result was “binds”.

B2: Yersinia entomophaga YenC2 (TcC component) (other)
chain: MDIQLFSKTPSVTVFDNRGLSVRDIAYRRHPDTPKVTEECITYHQFDFRGFLAQSLDPRLNHKEVTNFSYLTDLNGNIIYTQSVDAGNTLVLNDTEGRSVIAMTNISRGENGKDDLSLAVTRTFQYENAPLPGRPLSVTEQVNGENARITEHFVYAGNTPQEKNLNLAGQCVSYYDAAGLIQTDSVSLTGKPLSVSRKLLKNLDDTNILADWQGNDTSAWNSLLATEIYTTVTRTDAAGAVLTTIDAVGNQQRVAFDIAGQLSASWLTLKGGQEQVIIKVLTYSAAGQKLREEGGNGVVTTYTYEAETQRLIGIKTERPNGHAAGAKVLQDLRYEYDPVGNVLSITNDAEETRFWRNQKVVPENAYRYDSLYQLVSASGREVAGAGQQGSDLPSPLVPLPSDSSVYTNYTRTYTYDSAGNLMRIRHSAPATNNNYTLNITVSERSNRGVMSSLTENPADVDALFTASGSQKCLQQGQSLIWTPRGELRTVLLVARGETADDSESYRYDGSSQRILKISSQQTNHSARVQRALYLPGLEWRTMTGGVAEAENLQVICIGEAGRAQVRVLHWESGKPDGIINDQIRWSYDNLTCSSGLEVDGDGLVISMEEYYPYGGTAVWAARSHIETAYKTVRYSGKERDATGLYYYGFRYYQPWAGRWLSADPAGTVDGLNLYRMVRNNPLRLTDPDGMAPLDWLDLDTTNASRDIVKAIYQLNQIDGPHRGVRDTYQRMTESTGMILQETLNNEAVLKGIKQKDKEKKSRGMKFTNSKLKTYAAHAGVLNTLQPDPVYKDGFLNLPGSLGNKNTFPGVELIEDKVKPSLSQYHPDKLGKSQRWKPESSLGYYRVADTEAFITGIRSQYKSSGTDLHAVVEGRIRDHLLANNNVLPKMAGIAGLHAEVQALNYIISNPDIEGGNAERLNGSYIFTQRLVGDVNQDFPACYNCSGIISGLENVMTGRVNNDVRLKRRKSF
notes: Expressed as the whole protein; When co-expressed with YenB it self-cleaves after M690 into YenC2-N and YenC2-C, and both fragments stay in the complex
Regarding B2, the binding result in assay [2] is “binds”.

B3: Yersinia entomophaga YenC1 (TcC component) (other)
chain: MNQFDSALHQGTPGVSVLDNRGHVIRELRYYRHPDTPQEIAERIAFHQYDSYGFISQSIDPRLAERRKQDSSVKPNLSYFTALSGEVLRTDGVDAGTIFSLNDIAARPAISISATGVSHTWQYEGENRPGRVLSRSEREKDREERIIERFYWAGSDASQKANNLAGQCLRHYNSAGLNQTLSIALTGTPISACFQPLLESAEPEWQGTNESAWLELLTPEIFTTYNRADANGETLVQTDAMGNIQRLAYDVAGFLKSSWLSLKGGQEQIIVKSLTYSAAGQKLQEEHGNGVLTTYSYEAETQRLIGIRTERPAGHLSGARVFQDLRYTYDPVGNVLRITNDAEATRFWRNQKVVPENTYIYDTLYQLVSANGREMANIPQQSSQLPTLSPIDNNAYTNYIRNYHYDSAGNLMQIRHTSAAANNSYTTNITVSKYSNRAVLSSLTDDVDKVEAFFDAAGRQNQLLPGQTLSWNARGELAKVTPVARDGQESDSETYRYDANSQRVSKMAIQQSNNNTQTRRVLYLAGLERRTIHQGNTLFETLLVVKIGEAGRAQVQAMHWELGQPTEVANDELRYSYDNLIGSSGLEVDGTGQLISQEEYYPYGGTAVWMARSQREASDKAYGYSGKERDATGLYYYGFRYYQPWAGRWLSADPAGTIDGLNLFRMVRNNPIVLHDPDGLAPGFFERISSFRKKDTLTISSLKGTGPFYTRSESEIDIDFLFSRQDRDKDFPPQNHKELSAEDRREVLEVSSGENITSANKSSKWYAGTHWETKPLKNNTDLVVLHNGVQGAAGININLNDIKPGRSVLVTAGTLTGCTMITGVKGNNFYALHAGTGTPSENWVTGEHGVTDNFRMLNKLIPDAGIDLNPEAVNDSLLTILDYFDNGTIAYNGKKGSEIHRDADNILNYRTTGYENTVGVSFSLLTKDKNGEVSASTLLELGELKPHKKHRTRGQFGMTELKYEARKNTVVKLR
notes: Expressed as the whole protein; When co-expressed with YenB it auto-proteolyses into two fragments, and both co-elute with YenB
Consider B3, for which the binding result in assay [3] is on record as “binds”.

B4: conserved N-terminal 76 kDa portion of YenC2 (YenC2-N) (other)
chain: MDIQLFSKTPSVTVFDNRGLSVRDIAYRRHPDTPKVTEECITYHQFDFRGFLAQSLDPRLNHKEVTNFSYLTDLNGNIIYTQSVDAGNTLVLNDTEGRSVIAMTNISRGENGKDDLSLAVTRTFQYENAPLPGRPLSVTEQVNGENARITEHFVYAGNTPQEKNLNLAGQCVSYYDAAGLIQTDSVSLTGKPLSVSRKLLKNLDDTNILADWQGNDTSAWNSLLATEIYTTVTRTDAAGAVLTTIDAVGNQQRVAFDIAGQLSASWLTLKGGQEQVIIKVLTYSAAGQKLREEGGNGVVTTYTYEAETQRLIGIKTERPNGHAAGAKVLQDLRYEYDPVGNVLSITNDAEETRFWRNQKVVPENAYRYDSLYQLVSASGREVAGAGQQGSDLPSPLVPLPSDSSVYTNYTRTYTYDSAGNLMRIRHSAPATNNNYTLNITVSERSNRGVMSSLTENPADVDALFTASGSQKCLQQGQSLIWTPRGELRTVLLVARGETADDSESYRYDGSSQRILKISSQQTNHSARVQRALYLPGLEWRTMTGGVAEAENLQVICIGEAGRAQVRVLHWESGKPDGIINDQIRWSYDNLTCSSGLEVDGDGLVISMEEYYPYGGTAVWAARSHIETAYKTVRYSGKERDATGLYYYGFRYYQPWAGRWLSADPAGTVDGLNLYRMVRNNPLRLTDPDGM
notes: Made by self-cleavage of YenC2 after M690 when co-expressed with YenB; The C-terminal fragment was removed at pH 4.5; also called YenC2NTR; YenC2 - N term
For B4, the binding result in assay [4] is listed as “binds”.

B5: N-terminal portion of YenC1 (other)
chain: MNQFDSALHQGTPGVSVLDNRGHVIRELRYYRHPDTPQEIAERIAFHQYDSYGFISQSIDPRLAERRKQDSSVKPNLSYFTALSGEVLRTDGVDAGTIFSLNDIAARPAISISATGVSHTWQYEGENRPGRVLSRSEREKDREERIIERFYWAGSDASQKANNLAGQCLRHYNSAGLNQTLSIALTGTPISACFQPLLESAEPEWQGTNESAWLELLTPEIFTTYNRADANGETLVQTDAMGNIQRLAYDVAGFLKSSWLSLKGGQEQIIVKSLTYSAAGQKLQEEHGNGVLTTYSYEAETQRLIGIRTERPAGHLSGARVFQDLRYTYDPVGNVLRITNDAEATRFWRNQKVVPENTYIYDTLYQLVSANGREMANIPQQSSQLPTLSPIDNNAYTNYIRNYHYDSAGNLMQIRHTSAAANNSYTTNITVSKYSNRAVLSSLTDDVDKVEAFFDAAGRQNQLLPGQTLSWNARGELAKVTPVARDGQESDSETYRYDANSQRVSKMAIQQSNNNTQTRRVLYLAGLERRTIHQGNTLFETLLVVKIGEAGRAQVQAMHWELGQPTEVANDELRYSYDNLIGSSGLEVDGTGQLISQEEYYPYGGTAVWMARSQREASDKAYGYSGKERDATGLYYYGFRYYQPWAGRWLSADPAGTIDGLNLFRMVRNNPIVLHDPDGL
notes: Fragment left in complex with YenB after the C-terminal domain precipitated at low pH; also called YenC1 - N term; N-terminal portions of YenC
In the case of B5, the binding result in assay [5] was “binds”.

For the origin of these results see patent publication US20160075743A1 (AGRESEARCH, published 2016).
